This note sets out measurements from the DeepSol protein solubility set.

The nature of this data set: soluble on expression in E. coli; label from the status in PepcDB or PDB records.
Turning to “MSLIKGKELLGRPVVAVSNGAQVDNVHDVVFDHQGNRVLALLVEEGGWLRAAKAVPFGRVQSIGEKAVMIATPEDVVNTGRDPVLKEALAGKTNLIGMTLLTTDGQTLGKITDVYFDERSGQVEGYEASGGLFADMTNGRTFIPAPQSIQIGKDSAIVPAGVAAAMREQAPGGIRGAFHTAGKSLGGAVQGAADSVRGAYEDTSRSVRENYEQVSANVAEAAREGQQQARAAASDLRSRVQGGAEDLREASAERQKDFVVGKVAGQDVRTDNGVLIVAKGTTIDEGQARFAEQNGALPALLAAAAGGSVREGVRDLLADPSSDAGDVVGRRVQEDVRSSVGSLIAVQGQIVTPEVAERARELGLEERLVAATQAPGLQTPPVPDRAELREQASDLRDNLADGLSNVSQNVSQGANELLGRAKSWLGERREDLEDSLDRQEQEAYQARIRDALGRPVTRAVLTRTDRVILQPGELVTHAALDEARAAGVLGLLLDSVDGGEGHHHHHH”, the “soluble on expression in E. coli” value is “soluble”.
With “MQPVTKNGESMNKTALLLTVVGAVLLTGCARQENEYTVKEYTSMANPASVYCVEQGGQLEMVTENEQRVTYCVTKDGEKIEQWEYFRQNHDQQ”, the “soluble on expression in E. coli” value is “not soluble”.
The entry for “MGSDKIHHHHHHMMAFITVKPEIKNNLANVAKELKIDEELLKSANRSAQKHQLYCPGYVIEEHSGKELQTIQDIKRFLQPRQLKLSDSWIEQEKIYDDSAVEKEIKKIIDVFPFVSCREIGRSVLGRPIWELKAGGEHAVKKVHMNASFHANEWITTSVLLKWFKEYCMSLCCNSPFFGFSPIKLFNSTSLSLVPLVNPDGVDLVLNGSEVMGARRDELERLNEHRPNFNEWKANINGVDLNKQFPSLWEIEKYRKPTAPSYRDFPGISPLTEPESIAMYRLITENPPDRLLALHTQGEEIYWGYKGLEPEESAAVIKEFEELSGNIYKGVRDIDSYAGFRDWFIHHYFKEGYTVELGKGQNPLPFQQFSHIYNATSGILWRALFFHE” is “not soluble”.
In the case of “MKKDIILSGVGGQGILSIATVIGKAALKDGLYMKQAEVHGMSQRGGDVQSNLRISDQPIASDLIPSGKCDLIISLEPMEGLRYLPYLGHEGWLVTNETPFVNIPNYPAESDVMAEINKLPHKVVLNVDKVAKELGSTRVANIVLLGATIPFLGIDYEKIQDSIREIFQRKGDAIVELNLKALAAGKEIAEK”, the “soluble on expression in E. coli” value is given as “soluble”.
On to “MGNVMEGKSVEELSSTECHQWYKKFMTECPSGQLTLYEFRQFFGLKNLSPSASQYVEQMFETFDFNKDGYIDFMEYVAALSLVLKGKVEQKLRWYFKLYDVDGNGCIDRDELLTIIQAIRAINPCSDTTMTAEEFTDTVFSKIDVNGDGELSLEEFIEGVQKDQMLLDTLTRSLDLTRIVRRLQNGEQDEEGADEAAEAAG”, for which the “soluble on expression in E. coli” value is given as “not soluble”.
“MADDVDNDDKLEKPVDLIWGCELNEQNKTFEFKVEDDEEKCEHQLALRTVCLGDKAKDEFHIVEIVDQEEGAEKVVPIATLKPSILPMATMVGIELDPPVTFRLKAGSGPLYISGQHVAM”: the “soluble on expression in E. coli” value is on record as “soluble”.
As to “MPIVYYDGNCIYCYNYVIWLIQHDLPRNYQFATLKGEVGQQFFKQHPEAANKNSVILQKGDCIYFESQAIIKLITALPNRTKLLGVGLWLVPKPVRNFGYRMFANNRNRMWKTTWHQPNDYEKSFFLDDNAKVKLTDLEHHHHHH”, the “soluble on expression in E. coli” value is “soluble”.
The entry for “MGSSHHHHHHSSGLVPRGSHMSVRSLPAALRACARLQPHDPAFTFMDYEQDWDGVAITLTWSQLYRRTLNVAQELSRCGSTGDRVVISAPQGLEYVVAFLGALQAGRIAVPLSVPQGGVTDERSDSVLSDSSPVAILTTSSAVDDVVQHVARRPGESPPSIIEVDLLDLDAPNGYTFKEDEYPSTAYLQYTSGSTRTPAGVVMSHQNVRVNFEQLMSGYFADTDGIPPPNSALVSWLPFYHDMGLVIGICAPILGGYPAVLTSPVSFLQRPARWMHLMASDFHAFSAAPNFAFELAARRTTDDDMAGRDLGNILTILSGSERVQAATIKRFADRFARFNLQERVIRPSYGLAEATVYVATSKPGQPPETVDFDTESLSAGHAKPCAGGGATSLISYMLPRSPIVRIVDSDTCIECPDGTVGEIWVHGDNVANGYWQKPDESERTFGGKIVTPSPGTPEGPWLRTGDSGFVTDGKMFIIGR” is “soluble”.
The entry for “MNFFKRKFSFSEDEGEPMDDVNSGPPSSFSFQSIANKVSNTISAPTSPAKSRESLAAALERSLNHDRSRGEPLMKDAKVLLVIDSHHVDWSKYFRNHTEYAIRVEQGDIDELDVMCTEKNCTVELNTPGKDVRTFTPSAVFLGAGATRCAQLKTITRAFIAAHIPFLNSHTSAVAFLDRNNLKKQLKKITLSDGASIPMLPIVHYPHFHKFHQSQSSTYPMVVSVNEGFQGIGKIKVNNHEELCDVEGMLQIMSKGDTEVEVQPFVDAKYDLHIQKIGHEYKTFIRRGICKHWKSNVGSSVLEQISTCERHKKYLKAITDHVGPMHICSIDILVSKEGREFVHDVNDVIAYFGESAEDDRRAASLLLRALVAPRITSPIAAEPPATSPTTSAVTNGHGNHGPAPAVPTRRLPPHPSSSSAAPPRGHMSDKVESRHKDHYDPPPQIPRTGSRESVSYVDDTMGQLKRTFAGFFGE” is “not soluble”; for “MAASAAATAAASAATAASAASGSPGSGEGSAGGEKRPAASSAAAASAAASSPAGGGGEAQELLEHCGVCRERLRPERDPRLLPCLHSACSACLGPATPAAANNSGDGGSAGDGAMVDCPVCKQQCYSKDIVENYFMRDSGSKASSDSQDANQCCTSCEDNAPATSYCVECSEPLCETCVEAHQRVKYTKDHTVRSTGPAKTRDGERTVYCNVHKHEPLVLFCESCDTLTCRDCQLNAHKDHQYQFLEDAVRNQRKLLASLVKRLGDKHATLQKNTKEVRSSIRQVSDVQKRVQVDVKMAILQIMKELNKRGRVLVNDAQKVTEGQQERLERQHWTMTKIQKHQEHILRFASWALESDNNTALLLSKKLIYFQLHRALKMIVDPVEPHGEMKFQWDLNAWTKSAEAFGKIVAERPGTNSTGPGPMAPPRAPGPLSKQGSGSSQPMEVQEGYGFGSDDPYSSAEPHVSGMKRSRSGEGEVSGLLRKVPRVSLERLDLDLTSDSQPPVFKVFPGSTTEDYNLIVIERGAAAAAAGQAGTVPPGAPGAPPLPGMAIVKEEETEAAIGAPPAAPEGPETKPVLMPLTEGPGAEGPRLASPSGSTSSGLEVVAPEVTSAPVSGPGILDDSATICRVCQKPGDLVMCNQCEFCFHLDCHLPALQDVPGEEWSCSLCHVLPDLKEEDGSLSLDGADSTGVVAKLSPANQRKCERVLLALFCHEPCRPLHQLATDSTFSMEQPGGTLDLTLIRARLQEKLSPPYSSPQEFAQDVGRMFKQFNKLTEDKADVQSIIGLQRFFETRMNDAFGDTKFSAVLVEPPPLNLPSAGLSSQELSGPGDGP” it is “soluble”.
Turning to “QSPAEIASFSPRPSLADSKAVLNQAVADLSVAHSILHQVHWYMRGRGFMIWHPKMDEYMEEIDGYLDEMSERLITLGGAPFSTLKEFSENSQLKEVLGDYNVTIEEQLARVVEVFRYLAALFQKGFDVSDEEGDSVTNDIFNVAKASIEKHIWMLQAELGQAPKL”, the “soluble on expression in E. coli” value is recorded as “soluble”.
The entry for “MNTMLNPHYQQIWQTVQLIPQGKVACYGQIADLAGLPGRARLVGKSLGKVPKDGWRGQRVPWFRVINSQGKISFPPGSENFDKQKHHLQDEQVVVIGSRIKLKEFQWKPDLSELLFSLEFLEHHHHHH” is “not soluble”; for “MSLQKMKSSRKFLEGEPNIVIRKGELQYKVMKKNKIDINQLQSLLRQAGSFSIQEVEYAILETNGMVSVLPKSDFDKPTNKDLQIPSKSVSLPITLIIDGEIVRDNLKEAGVDEQWLKQELKKKNIDKTEDVLFAEWHKNKPLYTVTYEQSKGHHHHHH” it is “soluble”; for “MKLVLVSTRGVRSLNSTNFPAPWPFVKKGAFGQRKIGPMNYEKFKWPGQNREFPELSPKFQKLNPKELHRYTGVQADGFHDEKTGEFVPVKEMRSELVVPNLDGFKLRPYVSYRTDVQIEKRRVAYEKKVLEKGSERLADLHTVEDERWPPPKMSAETLFELAYGDTVRSAYKEGKYGNK” it is “not soluble”.
“MGSDKIHHHHHHMNLQYVLLNDNSWQSQGEWQTPDTPFMSFAFWQALSDTGAIGEEAGWLPIYILVHRVESDDDFTVQQSLSSVEASIKVKQPVAVLPVFIKGHHRGEFVFDHSWAQAYAQYGLDYYPRLVTSAPYTPITGQRLWLAEGETLDAEIINTAIKGVDDIAQQVDASGWHGLFVTPEMATIATTLMPFNSHTRSAGQSHGVDSASNTSMNIASNTPVLERQGCQFLWQNKNLSQNDQLFADFEEFLATLKAKKRKTIRAERRKVAEQGITCQRKCGDEIIESDWKTFYHCYVMTYAVRGQQPYLSIDFFEALAQNMAEHVMLAQALDAGGEIIASSLFLYDKPDNKMATLYGRYWGALGEYDSLHFELCYYQGIEFAIEQGLHYFDPGTQGEHKLIRGFIPTTTHSLHRIYDARFVPAIADFCHKDRLHMAQYREQAFEALPFNIDNMPTFDNNE”: the “soluble on expression in E. coli” value is on record as “not soluble”.
The entry for “MATTKRVLYVGGLAEEVDDKVLHAAFIPFGDITDIQIPLDYETEKHRGFAFVEFELAEDAAAAIDNMNESELFGRTIRVNLAKPMRIKE” is “soluble”; for “MEAASIAVPGAGASLRAQALDALMTPAWADKLAAVAAIDAGAPVGAQQDLAEPAGLPGRPPAPQLVPPSQVRQRSVQSPEGRAALLHALAHIEFNAINLALDAVWRYGGLPDAYYLDWLKVAREEAYHFDLLNRHLSGLGHAYGDFPAHNGLWEMAEKTRADLLARLALVPRTLEARGLDASPLIRDKLAAAGDADGAAILEIILRDEIGHVAIGNHWYKALCAQRGLDPVAQYAQLASRYGAPRLRGPFNLEARRAAGFDEDELRALLQAKLAAALEHHHHHH” it is “soluble”; for “DIELTQSPATLSVTPGNSVSISCRASQSLVNEDGNTYLFWYQQKSHESPRLLIKYASQSISGIPSRFSGSGSGTDFTLSINSVETEDLAVYFCQQITDWPFTFGGGTKLEIKRADAAPTVSIFPPSSEQLTSGGASVVCFLNNFYPKDINVKWKIDGSERQNGVLNSWTDQDSKDSTYSMSSTLTLTKDEYERHNSYTCEATHKTSTSPIVKSFNRNEC” it is “soluble”.
As for “MNKANPKNIPPLAPKKVFIKTYGCQMNVYDSQRMTDSLSSKGYVATQTPNDADLILVNTCHIREKAAEKLYSDLGRLRVMRQERTPDKPLMVGVTGCVAQAEGSEILRRAPIVDLVIGPQMYHRLPDLLEQTKQGKKIVATEYAVEDKFAHLPPHNKRAVRKRGVSAFLTVQEGCDKFCTFCVVPYTRGAEISRSVEQITEEARQLIEAGVKEITLLGQNVNGWHGQNVNGKTWRLGDLLYHLAKLDGLKRLRYTTSHPRDMDDSLIAAHRDLDILMPYLHLPVQSGSDRILKAMNRQHKSIHYLQLIEKIRNARPDIAFSGDFIVGFPGETDEDFEETIKLIKQVEYSSAYSFKYSPRPGTVGATMKNHVEEAVKDARLQHLQVLLLEQQNAFLRSKIGQTTDVLIEKAGRHSGQMVGRSPWLLPVVVDTQASTGTVIPIHIKNTSSNSFVGEMTNM”, the “soluble on expression in E. coli” value is recorded as “not soluble”.
Take “MEKHEEENGLCKAESVDGSLDVWSCQNSDSSSADHLVVMVHGILGSTDDWKFGAEQFVKKMPDKVFVHCSEKNVSALTLDGVDVMGERLAAEVLDIIQRKPNICKISFVAHSLGGLAARYAIGKLYKPANQEDVKDSVADSSQETPKGTICGLEAMNFITVATPHLGSMGNKQVPFLFGFSSIEKVAGLIIHWIFKRTGRHLFLKDEEEGKPPLLRRMVEDTDDCHFISALRAFKRRVAYSNVGHDHVVGWKTASIRRDSELPKWEDSLNEKYPHIVYEELCKACDMEDIPEGENHSDDIEEEMIKGLSSVSWEKVDVSFHSSRQRFAAHSVIQVKNEDMHIEGADVIEHIIDHFHA”: the “soluble on expression in E. coli” value is reported as “soluble”.
